The results in this text go back to patent publication US11099176B2 (Duke University, priority 2015, dated 2021).

Where only a bound is given, the exact number is not on record here.

Series [1] is described as follows: Thermal stability by SYPRO Orange thermal melt in a Roche LightCycler. As to conditions: for Thermostability apoTm: ligand-free protein, SYPRO Orange, Roche LightCycler. Format: physicochemical. The procedure:
The lactate-binding properties of these proteins were determined experimentally (Table 3). These experiments comprise four successive steps: • 1. Synthetic gene construction. The amino acid sequence of the homology leads are back translated into DNA sequences. […] The predicted gene sequences are assembled de novo from synthetic oligonucleotides. • 2. Heterologous protein expression of the homologues in E. coli.

Series [2] is described as follows: Lactate-mediated fluorescence emission response of fluorescent conjugates (cysteine and fluorophore scan). Type of series: biochemical. Further details: key to Response Acrylodan Shape / Response Badan Shape / Response Badan Intensity: m, monochromatic; d, dichromatic (i.e. spectral shape changes); 0, no change. The source says:
Semi-synthetic FRSs can be engineered by site-specifically attaching thiol-reactive, environmentally sensitive fluorophores that respond to ligand-mediated conformational changes. Identification of FRS candidates that can be used for sensing applications comprises three steps: • 1. Cysteine scan. Mutant lactate-binding proteins containing single cysteines are constructed for site-specific attachment of thiol-reactive fluorophores. […] Candidate positions fall into three classes: endosteric, replacing a residue that contacts the ligand directly; peristeric, located at the rim of the binding site; allosteric (Marvin et al., 1997, Proc Natl Acad Sci USA, 94, 4366-71; Marvin, 1998, J Am Chem Soc, 120, 7-11), located outside the binding site at sites that undergo local structural changes in concert with the hinge-bending motion. • 2. Fluorophore screening. Thiol-reactive, environmentally sensitive fluorophores are attached to each cysteine mutant prepared in step 1. • 3. Evaluation of the lactate-mediated change of all the fluorescent conjugates prepared in step 2. Responses to ligand binding in which there is both a change in fluorescence emission intensity and spectral shape are essential for chemometric applications, because such changes enable ratiometric measurements. Changes in spectral shape typically are accompanied by a shift in the wavelength of the emission intensity maxima. Three classes of fluorescent responses are possible: • i. No response. • ii. Monochromatic response (emission intensity increases or decreases without a change in spectral shape) • iii. […] Hypsochromatic: emission intensity shifts to shorter wavelengths upon binding ligand (“blue shift”). • ii. Bathochromatic: emission intensity shifts to longer wavelengths upon binding ligand (“red shift”). • 4.
We constructed seventeen single cysteine mutants in msLacBP6, exploring one endosteric, fourteen peristeric, and two allosteric positions. Two dominant electronic transitions give rise to fluorescence emission in these fluorophores with maxima in the blue (<500 nm) and green (>500 nm) regions, respectively.

The mark [3] stands for this setting: Acrylodan conjugate of msLacBP6 cysteine mutant, response to lactate.
Where [4] appears, read: Badan conjugate of msLacBP6 cysteine mutant, response to lactate.

B1: pgLacBP10: protein from Polymorphum gilvum (SEQ ID NO: 10, 24, 124) (protein)
chain: MTEISRRGLLAGSVFGGVALAAPTVARAQEAVEWRMQALWDAGTTPFEFEKKFVERVGELTEGRFKITLYSAGQIVPANQAFDAVRSGAFEMMKTFDGYEAGKIPAFAFTSTIPFGFPQSDQYEAWFYELGGLDLAREAYAKGGLFYIAPTVYGEEPMHSTVKIESIADMAGKKGRFVGLASAVMADLGVAVSPLATAEVYTALEKGLIDFADRGDLTANYEAGLGEVAKFIILPGVHQPTTATSYVANQAAYQKLPDGFKAALAVAAREISGSLRQHILVQDMEVLTKYKDQGVEVVRLDAADIAAARAKAVESWEKATKGDELATRVLKGQVDFMTSLGLL
For B1, the “Thermostability apoTm” value in series [1] amounted to 49 °C.

B2: tsLacBP7: lactate-binding protein from Thermus sp. (SEQ ID NO: 7, 21, 121) (protein)
chain: MQAPRFRWRIQSAWDAGTVGYTLFQRFAERVKELTDGQIEIQTFPAGAVVGTFDMFDAVKTGVLDGMHPFTLYWAGRMPVTAFLSSYPLGLDRPDQWETWYYALGGLDLARRAFEEQGLFYVGPVQHDYNLIHSKKPIKSFEDFKGVKLRVPGGMIADVFSAAGAATVLLPGGEVYPALERGVIDAADFVGPAVNYNLGFHQVTKYIIMGPPETPAIHQPVDLADITLNLSRWRAVPKNLQERFEAAVHEWSWIHYAGIQKANLETWPKYKAAGVQIIRLTTVDVRKFRRVAIPIWFKWAKQDKYAREAFASQLEYMKALGYVTDADVRGLSL
modifications: tsLacBP7 (with signal peptide replaced with M)
As to B2, in series [1], the “Thermostability apoTm” value is over 100 °C. Moreover, the “fluorescence response to lactate” value in series [2] (in words) was “strong dichromatic responses”.

B3: Y187C (conjugate)
chain: MATTWKIQSVWDAGTVGYDLFKEWCDGMEEKTGGELKFTCFPAKAVAADNNGLFDAVRNGVLQGMNPFTLYWSGKIPASVFLSSYPAGPDQPHQWDTMFYSLGMLEKTREIYKKFGLFYVGPIQHDANIIHSKQPINSLDDLKGLKMRLPGGMVAEVFAKFGVAAVSLPGSDIFPALEKGTIDAADCVGPAVNWELGFSQVTKYILMGPPGIMSVYQPVDLMDLTVNLRAWNALDPKLQQIVEDEVRIYSQKHYLAIQKRNIEAMKKFEAAGTTVTRLSQEDLQEFRRAAIPIWYSWANKDEDAREIFDMQLEYMMNDTVGYITEDDIKGMN
modifications: conjugated fluorophore; msLacBP6 (with signal peptide replaced with M)
On to B3, for which, in series [2] (setting [3]), the “Response Acrylodan Intensity” value was “+” and the “Response Acrylodan Shape” value is given as “d^f”. Moreover, in series [2] (setting [4]), the “Response Badan Intensity” value was 0 and the “Response Badan Shape” value is “d^f”.

B4: rsLacBP12: protein from Rhodobacter sphaeroides (SEQ ID NO: 12, 26, 126) (protein)
chain: MTAFEKKAAYSRRSFLRTGALAGGAAAGSVLAAPAVLAQAPLVMKMQTSWPASDIWMDFAREYVTRVEEMSGGRIKVDLLPAGAVVGAFQVMDAVHDGVIDASHSVSAYWYGKSKAASFFGTGPVFGGSATTMLGWFYQGGGQDLYRELTQDILGMNIVGFYGFPMPAQPFGWFKTEVNGVADIQGFKYRTVGLAADLLQAMGMSVAQLPGGEIVPAMERGVIDAFEFNNPSSDMRFGAQDVAKNYYLSSYHQASESFEYTFNRDFYEDLDPDLQAILKYAVEAASTSNTALALRQYSADLATLAAENGVAVHRTPKDILSGQLEAWDKLIVDLEADEFFKKVLDSQRAWVEQVSYYELMNAADLGLAYEHHFPGKLKL
modifications: Rhodobacter sphaeroides
Take B4: in series [1], the “Thermostability apoTm” value turned out to be 48 °C.

B5: psLacBP11: protein from Pseudomonas stuztzeri (SEQ ID NO: 11, 25, 125) (protein)
chain: MKRRHLFGAAALLATLALAGCKDEQSQAPNQQAAGEPAKTYHWKMVTAWPKNYPGLGTSAERLAERVNAMSGGRLTIKVYAAGELVPALEVFDAVSRGTAELGHGASYYWKGKVPTAQFFTSVPFGLSTSEMNAWLSKGGGQAFWDEAYAPFGVKPLVIGNTGMQMGGWYNKEINSLTDLKGLKIRMPGLGGEVLSRLGATTVNLPGGEVFTALQTGAIDATDWVSPYNDLAFGLHKAARYYYYPGWQEPQAVLELLINQKAFDSLPADLQAIVTEASLAASRDMHDDYVYNNALALEQLKQQGTELKRFPDEVLAAMREQSDLILGELAAQSELNGRIWASMKAFQAQVEPMHEISEKELYNWR
In the case of B5, the “Thermostability apoTm” value in series [1] came to 60 °C.

B6: fsLacBP13: protein from Flexistipes sinusarabici (SEQ ID NO: 13, 27, 127) (protein, listed as Flexistipes sinusarabici)
chain: MGMMKKLLYSLLIILLVASAGFTAEKKIRWKLAMTWGPTLHPLSDTAEHMAEIVKELSDGNFVINIDASNVHKAPFGIFDMVKLGQYEMGHTASYYYKGKNIAFLPLTTMPFGMTAPEQYAWFYYGGGLELMQEAYTKHGMLAFPGGNTGNQMGGWFTKEINSLDDLKGLKMRIPGFAGQIMSKLGVTVTNIPPGELYTALERGTVDAVEWTGPGMDINMGFHKIAKYYYTGWHEPGSEVEFLINEKEYNKLPEKYKKILKIAMKTAAYDMYIQSYEMNAEAWQQMKEKYPDIKVKVFPEEVLKEMKTAYDNLVASYEKESPMFKKIMESKRAYLDKVRDWTHISDYLYLKSTSESNLN
As to B6, the “Thermostability apoTm” value in series [1] is 46 °C.

B7: msLacBP6: lactate-binding protein from Marinobacter sp. (SEQ ID NO: 6, 20, 120) (protein)
chain: MTDITCKIETKGSARRRGFLKTLAVSAAISATLLASSVQAATTWKIQSVWDAGTVGYDLFKEWCDGMEEKTGGELKFTCFPAKAVAADNNGLFDAVRNGVLQGMNPFTLYWSGKIPASVFLSSYPAGPDQPHQWDTMFYSLGMLEKTREIYKKFGLFYVGPIQHDANIIHSKQPINSLDDLKGLKMRLPGGMVAEVFAKFGVAAVSLPGSDIFPALEKGTIDAADYVGPAVNWELGFSQVTKYILMGPPGIMSVYQPVDLMDLTVNLRAWNALDPKLQQIVEDEVRIYSQKHYLAIQKRNIEAMKKFEAAGTTVTRLSQEDLQEFRRAAIPIWYSWANKDEDAREIFDMQLEYMMNDTVGYITEDDIKGMN
Consider B7, for which, in series [1], the mid-point denaturation temperature was found to be 70 °C and the “Thermostability apoTm” value stood at 70 °C.

B8: ttLacBP1: lactate-binding protein from Thermus thermophilus, seed sequence (SEQ ID NO: 1, 15, 115) (protein, listed as Thermus thermophilus)
chain: MKRVSRRAFLRRLGVGVAATAAFSPLAVAQARRYRWRIQTAWDAGTVGYSLFQKFTERVKELTDGQLEVQPFPAGAVVGTFDMFDAVKTGVLDGMNPFTLYWAGRMPVTAFLSSYALGLDRPDQWETWFYSLGGLDIARRAFAEQGLFYVGPVQHDLNIIHSKKPIRRFEDFKGVKLRVPGGMIAEVFAAAGASTVLLPGGEVYPALERGVIDAADFVGPAVNYNLGFHQVAKYIIMGPPETPAIHQPVDLMDFTINLNRWRSLPKPLQERFIAAVHEYSWIHYAGIQKANLEAWPKYRQAGVEVIRLSNEDVRKFRRLAIPIWFKWAKMDKYSREAFASQLEYMKGIGYVTDEELKGLSL
As to B8, the “Thermostability apoTm” value in series [1] is over 100 °C.

B9: adLacBP9: protein from Anaeromyxobacter dehalogenans (SEQ ID NO: 9, 23, 123) (protein)
chain: MKKTTSRSQPDTAPKASRRSFLKKAALGAAGVAAGAAAPTIHVAQAPITLRFQSTWPQKDIFHEFALDYAKKVNEMSGGRLKIEVLAAGSVVKAFDLLDAVSKGTLDGGHGVVAYWYGKNTALALWGSGPAFGMDPNMVLAWHHYGGGRQLLEEIYRSLNLDVVSLMYGPMPTQPLGWFKQKPIAKPDDMKGLKFRTVGLSIDIFNGLGAAVNALPGAEIVPAMDRGLLDAAEFNNASSDRVLGFPDVSKICMLQSFHQCSEQFEILFNGKRFQALPADLKSIISIAAQAASADMSWKAIDRYSSDYFEMRDKQGVKFYSTRPEILKRQLEIWDQVMEKRAAENPTFKKVLESQRRFAQRAARWQNDTNVDFKMAYNHFFGGKKKAT
As for B9, the “Thermostability apoTm” value in series [1] was determined as 48 °C.
